In patent US20220073604A1 (ARGENX BVBA, published 2022):
Where a chain is given by its changes, count along the chain named.

B1: 133A9 (germlined variant of 68F2) (antibody, V domains shown)
VH: EVQLQESGPGLVKPSQTLSLTCTVSGGSITTRYYAWSWIRQPPGKGLEWIGVIDYEGDTYYSPSLKSRVTISVDTSKNQFSLKLSSVTAEDTAVYYCARDPDVVTGFHYDYWGQGTMVTVSS
VL: QSALTQPPLVSGSPGQTVTISCAGANNDIGTYAYVSWYQQPPGTAPKLMIYKVTTRASGIPDRFSGSISGNTASLTISGLQSEDEADYYCASYRNFNNAVFGTGTKLTVL
B2: 55A11 (Fab, V domains shown)
VH: QVQLVESGGGLVQPGGSLRLSCAASGFTFSNYYMTWVRQAPGKGLEWVSSIYSFSGDTAYADSVKGRFTISRDNAKNTLYLQMNSLKSEDTAVYYCTRNLGGVVVTTNGYDYWGQGTQVTVSS
VL: DIQMTQSPSSLPTSLGDSVTITCQASQSISDELSWYQQKPGQTPKLLIYGASRLQTGVPSRFSGRGSGTSFTLTISGLEAEDLATYYCLQGYSWPFMFGQGTKVELK
notes: Periplasmic Fab; Suffix 'd' of the label not explained; also called 55A11d
B3: 55C11 (Fab, V domains shown)
VH: B2 VH
VL: B2 VL with M4L, P12S, T13A, R53K, R65S, S93R
notes: Periplasmic Fab; Suffix 'f' not explained; also called 55C11f
B4: 111A7_SDM2_M100A (antibody, V domains shown)
VH: EVQLLESGGGLVQPGGSLRLSCAASGFTFSSYAMSWVRQAPGKGPEWVSRISAGGGSTYYGDSVKGRFTISRDNSKNTLYLQMNSLRAEDTAVYYCANRAGWGAGDYWGQGTLVTVSS
VL: QTVVTQEPSFSVSPGGTVTLTCGLSSGSVTASNYPGWYQQTPGQAPRALIYSTNDRHSGVPDRFSGSISGNKAALTITGAQAEDEADYYCALDIGDITEFGGGTQLTVL
B5: Fab 24E9 (Fab, V domains shown)
VH: EVQLVESGGGLVQPGGSLRLSCAASGFTFSTYAMSWVRQAPGKGPEWVSRISSGGGSTNYADSVKGRFTISRDNAKKTLYLQMKSLKPEDTAVYYCANRAGWGMGDYWGQGTQVTVSS
VL: QTVVTQEPSLSVSPGGTVTLTCGLSSGSVTASNYPGWFQQTPGQAPRALIYSTNDRHSGVPSRFSGSISGNKAALTITGAQPEDEADYYCALDIGDITEFGGGTHLTVLG
notes: Fab

Tests used:
[1] = target: human IL-6 (as added in the B9 and 7TD1 bioassays) (human, UniProt P05231 30-212); assay: cell-based or functional assay
[2] = target: T1, cynomolgus monkey IL-6 (cynomolgus monkey, UniProt P79341 28-212, limits assumed); assay: SPR (Biacore), periplasmic Fab
T1 construct: Immobilised on the Biacore chip

[3] = target: T2, eukaryotically produced human IL-6 (human, UniProt P05231 30-212); assay: SPR (Biacore), periplasmic Fab
T2 construct: Immobilised on the Biacore chip; also called Euk IL-6; EUK IL-6 (3-1)

[4] = target: T3, bacterially produced human IL-6 (human, UniProt P05231 30-212); assay: SPR (Biacore), periplasmic Fab
T3 construct: Immobilised on the Biacore chip; also called BACT IL-6 (2-1); bactIL-6

[5] = target: T4, bacterially produced human IL-6 (human, UniProt P05231 30-212); assay: SPR; purified Fab over biotinylated IL-6 on streptavidin chip
T4 construct: also called bactIL-6; prokaryotic IL-6
Protocol: (§1) From the washing phase the off-rate (kd) was determined, while from the injection phase the on-rate (ka) was calculated using the concentration and off-rate as parameters.

[6] = target: T4, bacterially produced human IL-6; assay: SPR; purified Fab; IL-6 coated on CM5 chip;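 also: dissociation rate taken from the wash phase, association rate fitted over the injection phase with analyte concentration and dissociation rate as inputs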
Protocol: as §1

[7] = target: T5, eukaryotically produced human IL-6 (human, UniProt P05231 30-212); assay: SPR; purified Fab; IL-6 coated on CM5 chip;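 also: dissociation rate taken from the wash phase, association rate fitted over the injection phase with analyte concentration and dissociation rate as inputs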
T5 construct: also called eukIL-6; Euk IL-6
Protocol: as §1

Row | Binder | IC50, 7TD1 cells [1] | Potency relative to 68F2, 7TD1 cells [1] | Ka [2] | Kd [2] | fold improvement of KD over 28A6 (parental) [2] | fold improvement of ka over 28A6 (parental) [2] | fold improvement of kd over 28A6 (parental) [2] | koff [2] | kon [2] | Ka [3] | Kd [3] | fold improvement of KD over 28A6 (parental) [3] | fold improvement of ka over 28A6 (parental) [3] | fold improvement of kd over 28A6 (parental) [3] | koff [3] | kon [3] | Ka [4] | Kd [4] | fold improvement of KD over 28A6 (parental) [4] | fold improvement of ka over 28A6 (parental) [4] | further results
1 | B1 | 0.00018 nM | 3.66 | – | – | – | – | – | – | – | – | – | – | – | – | – | – | – | – | – | – | –
2 | B2 | – | – | 1.77e+09 M⁻¹ | 0.566 nM | 9.28 fold | 1.13 fold | 8.24 fold | 8.17e-05 s⁻¹ | 144000 M⁻¹ s⁻¹ | 1.59e+09 M⁻¹ | 0.631 nM | 0.92 fold | 0.55 fold | 1.65 fold | 6.36e-05 s⁻¹ | 101000 M⁻¹ s⁻¹ | 2.78e+09 M⁻¹ | 0.359 nM | 2.09 fold | 0.79 fold | fold improvement of kd over 28A6 (parental) [4]: 2.63 fold; koff [4]: 6.76e-05 s⁻¹; kon [4]: 188000 M⁻¹ s⁻¹
3 | B3 | – | – | 3.2e+09 M⁻¹ | 0.313 nM | 16.8 fold | 2.23 fold | 7.56 fold | 8.9e-05 s⁻¹ | 285000 M⁻¹ s⁻¹ | 3.1e+09 M⁻¹ | 0.323 nM | 1.8 fold | 1.1 fold | 1.62 fold | 6.47e-05 s⁻¹ | 201000 M⁻¹ s⁻¹ | 3.29e+09 M⁻¹ | 0.304 nM | 2.46 fold | 0.96 fold | fold improvement of kd over 28A6 (parental) [4]: 2.56 fold; koff [4]: 6.94e-05 s⁻¹; kon [4]: 228000 M⁻¹ s⁻¹
4 | B4 | 0.00157 nM | 0.43 | – | – | – | – | – | – | – | – | – | – | – | – | – | – | – | – | – | – | –
5 | B5 | – | – | – | – | – | – | – | – | – | – | – | – | – | – | – | – | – | – | – | – | Ka [5]: 8.38e+08 M⁻¹; Kd [5]: 1.19 nM; koff [5]: 0.000139 s⁻¹; kon [5]: 117000 M⁻¹ s⁻¹; Kd [6]: 0.93 nM; koff [6]: 0.00029 s⁻¹; Kd [7]: 0.71 nM; koff [7]: 0.00024 s⁻¹
